From the nanobody polyreactivity screen of Harvey et al. (2022)

experiment: yeast display, Sf9 membrane polyspecificity reagent, FACS + sequencing; frameworks hold sequencing errors
Outline: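 Sorting gates, low and high (top ~1%), were placed on anti-HA fluorescence to track expression and on streptavidin fluorescence to track reagent binding. A clone's polyreactivity label is taken from the gate it came out of. The reagent was 10% biotinylated, detergent-solubilized Sf9 membrane, applied for 1 hour at 4 °C to galactose-induced yeast display cells.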

| Sequence | polyreactivity (PSR sort gate) |
| --- | --- |
| QVQLVESGGGLVQAGGSLRLSCAASGSIFYAYTMGWYRQAPGKERELVASITKSGGSTYYADSVKGRFTISRDNAKNTVYLQMNSLKPEDTAVYYCAAAFNRYGTTSYWYRHYYWGQGTQVTVSS | high polyreactivity |
| QVQLVESGGGLVQAGGSLRLSCAASGSIFYDKAMGRYRQAPGKEREFVAAISLRTGRTYYADSVKGRFTISRDNAKNTVYLQMNSLKPEDTAVYYCAARGYYGPKYYYWGQGTQVTVSS | high polyreactivity |
| QVQLVESGGGLVQAGGSLRLSCAASGSIFYDNAMGWYRQAPGNERELVAAIDDSDRTNYADSVKGRFTITRDNAKNTVYLQMNSLKPEDTAVYYCARDRWKWHYGYDYWGQGTQVTVSS | low polyreactivity |
| QVQLVESGGGLVQAGGSLRLSCAASGSIFYDYAMGWYRQAPGKEREFVAAITSSGGSTYYADSVKGRFTISRDNAKNTVYLQMNSLKPEDTAVYYCAAEDSDAYFIYGYWGQGTQVTVSS | low polyreactivity |
| QVQLVESGGGLVQAGGSLRLSCAASGSIFYDYVMGWYRQAPGKERELVAAITRGGRTYYADSVKGRFTISRDNAKNTVYLQMNSLKPEDTAVYYCNAGRHQGYDWGQGTQVTVSS | high polyreactivity |
| QVQLVESGGGLVQAGGSLRLSCAASGSIFYENAMGWYRQAPGKERELVAAISWNAGSTYYADSVKGRFTISRDNAKNTVYFQMNSLKPEDTAVYYCATTADGIRYDYWGQGTQVTVSS | low polyreactivity |
| QVQLVESGGGLVQAGGSLRLSCAASGSIFYENMGWYRQSPRKERELVASISWSGTSTYADSVKGRFTISRDNAKNTVYLQMNSLKPEDSAVYYCAAGKNGYTYSRSYSYGYWGQGTQVTVSS | high polyreactivity |
| QVQLVESGGGLVQAGGSLRLSCAASGSIFYEYAMGWYRKAPGKEREFVAAISSSGGSTYYADSVKGRFTISRDNAKNTVYLQMNSLKPEDTAVYYCATQSSVLSWWYDYWGQGTQVTVSS | low polyreactivity |
| QVQLVESGGGLVQAGGSLRLSCAASGSIFYEYDMGWYRQAPGKERELVAALDGSADSTYYADSVKGRFTISRDNAKNTVYLQMNSLKPEDTAVYYCNTRYFRWDTEYGYWGQGTQLTVSS | low polyreactivity |
| QVQLVESGGGLVQAGGSLRLSCAASGSIFYFNGLGWSRQSPGKEREFVAAITWGDGSTYYADSVKGRFTISRDNAKNTVYLQMNSLKPADTAVYYCAAVLLIFKYVPRYDYWGQGSQVTVSS | low polyreactivity |
| QVQLVESGGGLVQAGGSLRLSCAASGSIFYFYAMGWYRQAPGKERELVAAISWSGGSTYYADSVKGRFTISRDNAKNTVYLQMNSLKPEDTAVYYCNAADYWYWENDYWGQGTQVTVSS | low polyreactivity |
| QVQLVESGGGLVQAGGSLRLSCAASGSIFYFYTMGWYRQAPGKERELVASITYSGGRTYYADSVKGRFTISRDNAKNTVYLQMNSLKPEDTAVYYCAVRGYRRYWGQGTQVTVSS | high polyreactivity |
| QVQLVESGGGLVQAGGSLRLSCAASGSIFYGNALGWYRQAPGKEREFVAAISSSGGSTYYADSVKGRFTISRDNAKNTVYLQMNSLKPEDTAVYYCAARGPKHTHSRRYFTEYDYWGQGTQVTVSS | low polyreactivity |
| QVQLVESGGGLVQAGGSLRLSCAASGSIFYGNAMGWYRQAPGKERELVAAIDGTGASTYYADSVKGRFTISRDNAKNTVYLQMNSLKPEDTAVYYCNKALTSKDYPVRTVERDYWGQGTQVTVSS | low polyreactivity |
| QVQLVESGGGLVQAGGSLRLSCAASGSIFYGNAMGWYRQAPGKERELVAAISESGGSTYYADSVKGRFTISRDNAKNTVYFQMNSLKPEDTAVYYCNSEAWGYYWWWGYDYWGHGTQVTVSS | low polyreactivity |
| QVQLVESGGGLVQAGGSLRLSCAASGSIFYGYAMGWYRQAPGKERELVAAISWTGGRTYYADSVKGRFTISRDNAKNTVYLQMNSLKPEDTAVYYCNVRRYSVVSGGYCGQGTQVTVSS | high polyreactivity |
| QVQLVESGGGLVQAGGSLRLSCAASGSIFYGYAMGWYRQSPGKERELVAAISSTGVRSYYADSVKGRFTISRDNAKNTVYLQMNSLKPEDSEVYYCAARRYGPGRYQEDYWGQGSQVTVSS | high polyreactivity |
| QVQLVESGGGLVQAGGSLRLSCAASGSIFYGYTMGWYRQEPGKERELVAAIRKSGGSTNYADSVKGRFTISRDNAKNTVFLQMNSLKPEDTAVYYCAAAYYRGRGYYWGQGTQVTVSS | high polyreactivity |
| QVQLVESGGGLVQAGGSLRLSCAASGSIFYGYVMGCYTQAPGKERELVAAISGGGSTNYADSVKGRFTISRDNAKNTVYLQMNSLKPEDTAVYYCNTEDWAVGSPEVEYEYDYWGQGTQVTVSS | low polyreactivity |
| QVQLVESGGGLVQAGGSLRLSCAASGSIFYHNAMGWYRQAPGKERELVAAITWSGSTTYYADSVKGRFTISRDNAKNTVYLQMNSLKPEDTAVYYCNGGYRHGHYDYWGQGTQVTVSS | low polyreactivity |
| QVQLVESGGGLVQAGGSLRLSCAASGSIFYHNAMGWYRQAPGKERELVARISSRGGSTYYADSVKGRFTISRDNAKNTVYLQMNSLKPEDTAVYYCNNAYRYTSAYDYWGQGTQVTVSS | high polyreactivity |
| QVQLVESGGGLVQAGGSLRLSCAASGSIFYHNAMGWYRRAPGKEREFVAAITGSGGSTYYADSVKGRFTISRDNAKNTVYLQMNSLKPEDTAVYYCASVGYTKWWISWGYDYWGQGTQVTVSS | low polyreactivity |

| Sequence | polyreactivity (PSR sort gate) |
| --- | --- |
| QVQLVESGGGLVQAGGSLRLSCAASGSIFYHYAMGLYRQAPGKERELVAAISGSGGSTYYADSVKGRFTISRDNAKNTVYLQMNSLKPEDTAVYYCAADTSRYHYTRYFFDSDYWGQGTQVTVSS | low polyreactivity |
| QVQLVESGGGLVQAGGSLRLSCAASGSIFYHYAMGWYRQAPGKERELVAAISSGGSTSYADSVKGRFTISRDNAKNTVYLQMNSLKPEDTAVYYCNARRIRSRSWKYDYWGQGTQVTVSS | low polyreactivity |
| QVQLVESGGGLVQAGGSLRLSCAASGSIFYHYAMGWYRQAPGKERELVAGITSSGDRTHYADSVKGRFTISRDNAKNSVYLQMNSLKPEDTAVYYCNTATIHGTAYDYWGQGTQVTVSS | low polyreactivity |
| QVQLVESGGGLVQAGGSLRLSCAASGSIFYHYAMGWYRQAPGKERELVAGITSSGDRTHYADSVKGRFTISRDNAKNTVYLQMNSLKPEDTAVYYCNTATIHGTAYDYWGQGTQVTVSS | low polyreactivity |
| QVQLVESGGGLVQAGGSLRLSCAASGSIFYINAMGCYRQAPGKEREMVAAITSDGSTYYADSVKGRFTISRDNAKNTVYLQMNSLNPEDTAVYYCAADLTSDQYMYYWYWFYSWGQGTQVPVSS | low polyreactivity |
| QVQLVESGGGLVQAGGSLRLSCAASGSIFYINAMGWYRQAPGKEREFVARISWRSGSTSYADSVKGRFTISRDNAKNTVYLQMNSLKPEDTAVYYCNAGDFANDNGGRRDQFTWEDEYWGQGTQVTVSS | low polyreactivity |
| QVQLVESGGGLVQAGGSLRLSCAASGSIFYINAMGWYRQAPGKERELVAAIRSGGSTNYADSVKGRFTISRDNAKNTVYLQMNSLKPEDTAVYYCNARSRSYVPYYYWGQGTQVTVSS | high polyreactivity |
| QVQLVESGGGLVQAGGSLRLSCAASGSIFYINDMGWYRQAPGKERELVAAISWSGGTTYYADSVKVRFTISRDNAKNTVYLQMNSLKPEDTAVYYCATDYFFLFPWGLSDYWGQGTQVTVSS | low polyreactivity |
| QVQLVESGGGLVQAGGSLRLSCAASGSIFYINDMGWYRQAPGTERELVAAISWSGGTTYYADSVKGRFTISRDNAKNTVYLQMNSLKPEDTAVYYCATDSFFLFPWGLSDYWGQGTQVTVSS | low polyreactivity |
| QVQLVESGGGLVQAGGSLRLSCAASGSIFYKNAMAWYRQAPGKERELVAAITWSGGSTYYADSVKGRFTISRDNAKNTVYLHMNSLKPEDTAVYYCAAGLYRYRKYGYWGQGTQVTVSS | low polyreactivity |
| QVQLVESGGGLVQAGGSLRLSCAASGSIFYLYAMGWYRQAPGKEREFVAAITSSSGSTHYADSVKGRFTISRDNAKNTVYYQMNSLKPEDTAVYYCAKDYGPWTYDYWGQGTQVTVSS | low polyreactivity |
| QVQLVESGGGLVQAGGSLRLSCAASGSIFYLYAMGWYRQAPGKERELVAGIRYRGGSTYYADSVKGRFTISRDNAKNTVYLQMNSLKPEDTAVYYCAAEYGDGRYWSYDYWGQGTQVTVSS | high polyreactivity |
| QVQLVESGGGLVQAGGSLRLSCAASGSIFYLYAMGWYRQEPGKERELVAAITSGDSTTYADSVKGRFTISRDNAKNTVYLQMNSLIPEDTAVYYCAADWPGLVGYHNSAENDYWGQGTQVTVSS | low polyreactivity |
| QVQLVESGGGLVQAGGSLRLSCAASGSIFYLYTMGWYRQAPGKERELVASITYSGGTYYADSVKGRFTISRDNAKNTVYLQMNSLKPEDTAVYYCNAHIPTNRSYVPEVRGEYDYWGQGTQVTVSS | low polyreactivity |
| QVQLVESGGGLVQAGGSLRLSCAASGSIFYNAMGWYRQAPGKERELVAAISYRGGRTYYADSVKGRFTISRDNAKNTVYLQMNSLKPEDTAVYYCAADSTVGRYPYDYWGQGTQVTVSS | high polyreactivity |
| QVQLVESGGGLVQAGGSLRLSCAASGSIFYNAMGWYRQAPGKERELVAAITSGGRTYYADSVKGRFTISRDNAKNTVYLQMNSLKPEDTAVDYCAADVRRVRVGKYDYWGQGTQVTVSS | high polyreactivity |
| QVQLVESGGGLVQAGGSLRLSCAASGSIFYNNAMGWYRQAPGKERELVAAISLRGGSTYYADSVKGRFTISRDNAKNTVYLQMNSLKPEDTAVYYCAAGVRSPFRGGYYWGQGTQVTVSS | high polyreactivity |
| QVQLVESGGGLVQAGGSLRLSCAASGSIFYNYSMGWYRQAPGKERELVATITRSDGSTYYADSVKGRFTISRDNAKNTVYLQMNSLKPEDTAVYYCNADSLWDRAFGYYYWGQGTQVTVSS | low polyreactivity |
| QVQLVESGGGLVQAGGSLRLSCAASGSIFYPNAMGWYRQAPGKERELVAAISIGGGRTYYADSVKGRFTISRDNAKNTVYLQMNSLKPEDTAVYYCAATRVDSDDRTRFYYWGQGTQVTVSS | high polyreactivity |
| QVQLVESGGGLVQAGGSLRLSCAASGSIFYPNVMGWYRQAPGKERELVATISRGGTTNYADSVKGRFTISRDNAKNTVYLQMNRLKPEDTAVYYCAAPIGDVYVGKGYDSWGQGTQVTVSS | low polyreactivity |
| QVQLVESGGGLVQAGGSLRLSCAASGSIFYPYAMGWYRQAPGKERELVAAISRSGGSTRYADSVKGRFTISRDNAKNTVYLQMNSLKPEDTAVYYCAVRVFYGVGLIGYYYWGQGTQVTVSS | high polyreactivity |
